Measured values from patent US20230073274A1 (NOVELMED THERAPEUTICS, published 2023).
Read-outs that look alike come from different tables or passages of the source.

Key:
human properdin [1] = target: T1, human properdin (human, UniProt P27918 28-469); test: ELISA, human properdin coated on plate
Description: (§1) Polystyrene microtiter plates were coated with human (2.0 μg/50 μl per well) properdin in phosphate buffered saline (PBS) overnight at 4° C. After aspirating the properdin solution, the wells were blocked with PBS containing 1% bovine serum albumin (BSA) (Sigma-Aldrich, St. Louis, Mo.) for 2 hours at room temperature. Wells without peptide or properdin coating served as background controls. Aliquots of the test antibody in blocking solution were added to the properdin coated wells and allowed to incubate for 1 hour to allow binding to occur. Following a 1 hour incubation at room temperature, the plate was rinsed with PBS five times and incubated with 1:2000 diluted anti-properdin polyclonal antibody.

human properdin [2] = target: T1, human properdin; test: cell-based or functional assay
human properdin [3] = target: T1, human properdin; test: ELISA, human properdin coated on the plate, OD 450 nm
Description: as §1

human properdin [4] = target: T1, human properdin; test: cell-based or functional assay; remark: listed apart in the source
human properdin [5] = target: T1, human properdin; test: cell-based or functional assay; remark: listed apart in the source
human properdin [6] = target: T1, human properdin; test: ELISA, properdin coated on the plate, OD 450 nm
human properdin [7] = target: T1, human properdin; test: properdin binding assay (method of Example 8, not restated)
human properdin [8] = target: T1, human properdin; test: cell-based or functional assay; remark: listed apart in the source
human properdin [9] = target: T1, human properdin; test: ELISA, properdin coated on the plate, OD 450 nm; remark: listed apart in the source
human properdin [10] = target: T1, human properdin; test: cell-based or functional assay; remark: listed apart in the source
human properdin [11] = target: T1, human properdin; test: cell-based or functional assay; remark: listed apart in the source

T1 sequence (P27918 28-469 limits assumed): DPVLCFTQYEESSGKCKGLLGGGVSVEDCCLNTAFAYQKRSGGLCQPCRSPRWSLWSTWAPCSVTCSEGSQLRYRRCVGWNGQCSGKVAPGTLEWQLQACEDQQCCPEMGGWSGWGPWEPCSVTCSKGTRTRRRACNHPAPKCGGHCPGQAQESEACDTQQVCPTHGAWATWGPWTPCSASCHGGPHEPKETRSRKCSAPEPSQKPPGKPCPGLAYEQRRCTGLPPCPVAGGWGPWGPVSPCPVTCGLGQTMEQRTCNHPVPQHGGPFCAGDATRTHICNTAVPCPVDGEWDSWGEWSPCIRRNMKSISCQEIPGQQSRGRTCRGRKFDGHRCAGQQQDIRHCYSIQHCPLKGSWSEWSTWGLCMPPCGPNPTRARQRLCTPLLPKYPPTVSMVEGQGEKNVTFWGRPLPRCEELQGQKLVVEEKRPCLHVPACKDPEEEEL

Row | Binder | Binding Affinity (human properdin [1]) | EC50 (read off the curve) (human properdin [3]) | IC50 (read off the curve): C3b deposition (sheet title: LPS C3b 10% NHS) (human properdin [5]) | EC50 (read off the curve) (human properdin [6]) | Affinity (human properdin [7]) | C3b (µg/mL); inhibition of AP mediated C3b formation and deposition (human properdin [8]) | MAC (µg/mL); inhibition of MAC formation (human properdin [8]) | other results
1 | NMT16 (antibody, V domains shown) VH: EVQLVQSGAEVKKPGASVKVSCKASGYIFTNYPIHWVRQAPGQGLEWMGFIDPGGGYDEPDERFRDRVTMTADTSTSTAYMELSSLRSEDTAVYYCARRGGGYYLDYWGQGTTVTVSS VL: DIQMTQSPSSLSASVGDRVTITCRASQDISFFLNWYQQKPGKAPKLLIYYTSRYHSGVPSRFSGSGSGTDFTLTISSLQPEDFATYYCQHGNTLPWTFGQGTKLEIK | 315 pM | 0.3 to 0.4 nM |  |  |  |  |  | IC50 (read off the curve): properdin deposition (AP activation on LPS, 10% normal human serum) (human properdin [2]): ~1 µg/mL; MAC (µg/Ml); inhibition of MAC formation (human properdin [4]): 3 µg/mL; Properdin (µg/mL); inhibition of properdin deposition (human properdin [4]): 4 µg/mL
2 | NMT18-101 (antibody, V domains shown) VH: EVQLVQSGAEVKKPGASVKVSCKASGYIFTNYPIHWVRQAPGQGLEWMGFIDPGGGYDEPDERFRDRVTMTADTSTSTAYMELSSLRSEDTAVYYCARRGGGYYLDYWGQGTTVTVSS VL: DIQMTQSPSSLSASVGDRVTITCRASQDISFFLNWYQQKPGKAPKLLIYYTSRYHSGVPSRFSGSGSGTDFTLTISSLQPEDFATYYCQHGQTLPWTFGQGTKLEIK |  |  | ~0.5 µg/mL | ~0.6 nM | 590 pM | 1 µg/mL | 3 µg/mL | 
3 | NMT23 (antibody, V domains shown) VH: EVQLVQSGAEVKKPGASVKVSCKASGYIFTNYPIHWVRQAPGKGLEWMGFIDPGGGHDEYADSVKGRVTMTRDTSTSTVYMELSSLRSEDTAVYYCARRGGGYYLDYWGQGTLVTVSS VL: DIQMTQSPSSLSASVGDRVTITCRASQDISFFLNWYQQKPGKAPKLLIYYTSRYHSGVPSRFSGSGSGTDFTLTISSLQPEDFATYYCQHGSTLPWTFGQGTKVEIK |  |  |  |  |  |  |  | EC50 (read off the curve) (human properdin [9]): ~0.2 nM
4 | NMT24 (antibody, V domains shown) VH: EVQLVQSGAEVKKPGASVKVSCKASGYIFTNYPIHWVRQAPGKGLEWMGFIDPGGGHDEYADSVKGRVTMTRDTSTSTVYMELSSLRSEDTAVYYCARRGGGYYLDYWGQGTLVTVSS VL: DIQMTQSPSSLSASVGDRVTITCRASQDISFFLNWYQQKPGKAPKLLIYGASSYHSGVPSRFSGSGSGTDFTLTISSLQPEDFATYYCQHGQTLPRTFGQGTKVEIK |  |  |  |  |  |  |  | binding result (human properdin [9]): no binding (tested: about 13 nM)
5 | NMT26 (antibody, V domains shown) VH: EVQLVESGGGLVQPGRSLRLSCAASGYIFTNYPIHWVRQAPGKGLEWVSFIDPGGGHIDYADSVEGRFTISRDNAKNSLYLQMNSLRAEDTAVYYCAKRGGGYYLDYWGQGTLVTVSS VL: DIQMTQSPSSLSASVGDRVTITCRASQDISFFLNWYQQKPGKAPKLLIYYTSRYHSGVPSRFSGSGSGTDFTLTISSLQPEDVATYYCQHGSTLPYTFGQGTKVEIK |  |  |  |  |  |  |  | binding result (human properdin [9]): no binding (tested: about 13 nM)
6 | NMT18-100 (antibody, V domains shown) VH: EVQLVQSGAEVKKPGASVKVSCKASGYIFTNYPIHWVRQAPGQGLEWMGFIDPGGGYDEPDERFRDRVTMTADTSTSTAYMELSSLRSEDTAVYYCARRGGGYYLDYWGQGTTVTVSS VL: DIQMTQSPSSLSASVGDRVTITCRASQDISFFLNWYQQKPGKAPKLLIYYTSRYHSGVPSRFSGSGSGTDFTLTISSLQPEDFATYYCQHGQTLPWTFGQGTKLEIK |  |  | ~0.5 µg/mL | 0.3 to 0.4 nM | 322 pM | 1 µg/mL | 1 µg/mL | 
7 | NMT19 (antibody, V domains shown) VH: EVQLVQSGAEVKKPGASVKVSCKASGHIFTNYPIHWVRQAPGQGLEWMGFIDPGGGHDEPDERFRDRVTMTADTSTSTAYMELSSLRSEDTAVYYCARRGGGYYLDYWGQGTTVTVSS VL: DIQMTQSPSSLSASVGDRVTITCRASQDISFFLNWYQQKPGKAPKLLIYYTSRYHSGVPSRFSGSGSGTDFTLTISSLQPEDFATYYCQHGQTLPWTFGQGTKLEIK | 486 pM | ~0.5 nM |  |  |  |  |  | IC50 (read off the curve): properdin deposition (AP activation on LPS, 10% normal human serum) (human properdin [10]): ~10 µg/mL
8 | NMT27 (antibody, V domains shown) VH: EVQLVQSGAEVKKPGASVKVSCKASGYIFTNYPIHWVRQAPGKGLEWMGFIDPGGGYDEPDERFRDRVTMTRDTSTSTVYMELSSLRSEDTAVYYCARRGGGYYLDYWGQGTLVTVSS VL: DIQMTQSPSSLSASVGDRVTITCRASQDISFFLNWYQQKPGKAPKLLIYYTSRYHSGVPSRFSGSGSGTDFTLTISSLQPEDFATYYCQHGSTLPRTFGQGTKVEIK |  |  |  |  |  |  |  | binding result (human properdin [9]): binds
9 | NMT28-101 (antibody, V domains shown) VH: EVQLVQSGAEVKKPGASVKVSCKASGYIFTNYPIHWVRQAPGQGLEWMGFIDPGGGYDEPDERFRDRVTMTADTSTSTAYMELSSLRSEDTAVYYCARRGGGYYLDYWGQGTLVTVSS VL: DIQMTQSPSSLSASVGDRVTITCRASQDISFFLNWYQQKPGKAPKLLIYYTSRYHSGVPSRFSGSGSGTDFTLTISSLQPEDFATYYCQHGQTLPWTFGQGTKVEIK |  |  | ~0.5 µg/mL | ~0.4 nM | 425 pM | 1 µg/mL | 3 µg/mL | 
10 | NMT17-101 (antibody, V domains shown) VH: EVQLVQSGAEVKKPGASVKVSCKASGYIFTNYPIHWVRQAPGQGLEWMGFIDPGGGYDEPDERFRDRVTMTADTSTSTAYMELSSLRSEDTAVYYCARRGGGYYLDYWGQGTTVTVSS VL: DIQMTQSPSSLSASVGDRVTITCRASQDISFFLNWYQQKPGKAPKLLIYYTSRYHSGVPSRFSGSGSGTDFTLTISSLQPEDFATYYCQHGSTLPWTFGQGTKLEIK |  |  | ~0.5 µg/mL | ~0.5 nM | 499 pM | 1 µg/mL | 1 µg/mL | 
11 | NMT20 (antibody, V domains shown) VH: EVQLVQSGAEVKKPGASVKVSCKASGYIFTNYPIHWVRQAPGQGLEWMGFIDPGGGYDEPDERFRDRVTMTADTSTSTAYMELSSLRSEDTAVYYCARRGGGYYLDYWGQGTTVTVSS VL: DIQMTQSPSSLSASVGDRVTITCRASQDISFFLNWYQQKPGKAPKLLIYYTSRYHSGVPSRFSGSGSGTDFTLTISSLQPEDFATYYCQHGSTLPYTFGQGTKLEIK | 297 pM | ~0.3 nM |  |  |  |  |  | IC50 (read off the curve): properdin deposition (AP activation on LPS, 10% normal human serum) (human properdin [10]): ~1 µg/mL; MAC (µg/Ml); inhibition of MAC formation (human properdin [4]): 25 µg/mL; Properdin (µg/mL); inhibition of properdin deposition (human properdin [4]): 30 µg/mL; IC50 (read off the curve): C3b deposition (AP activation on LPS, normal human serum) (human properdin [11]): ~0.8 µg/mL
12 | NMT17-100 (antibody, V domains shown) VH: EVQLVQSGAEVKKPGASVKVSCKASGYIFTNYPIHWVRQAPGQGLEWMGFIDPGGGYDEPDERFRDRVTMTADTSTSTAYMELSSLRSEDTAVYYCARRGGGYYLDYWGQGTTVTVSS VL: DIQMTQSPSSLSASVGDRVTITCRASQDISFFLNWYQQKPGKAPKLLIYYTSRYHSGVPSRFSGSGSGTDFTLTISSLQPEDFATYYCQHGSTLPWTFGQGTKLEIK |  |  | ~0.4 µg/mL | ~0.3 nM | 263 pM | 1 µg/mL | 1 µg/mL | 
13 | NMT21 (antibody, V domains shown) VH: EVQLVQSGAEVKKPGASVKVSCKASGYIFTNYPIHWVRQAPGQGLEWMGFIDPGGGYDEYAQKFQGRVTLTADTSTSTAYMELSSLRSEDTAVYYCARRGGGYYLDYWGQGTTLTVSS VL: DIQMTQSPSSLSASVGDRVTITCRASQDISFFLNWYQQKPGKAPKLLIYYTSRYHSGVPSRFSGSGSGTDFTLTISSLQPEDFATYYCQHGQTLPWTFGQGTKLEIK | 353 pM | 0.3 to 0.4 nM |  |  |  |  |  | IC50 (read off the curve): properdin deposition (AP activation on LPS, 10% normal human serum) (human properdin [10]): ~1 µg/mL; MAC (µg/Ml); inhibition of MAC formation (human properdin [4]): 8 µg/mL; Properdin (µg/mL); inhibition of properdin deposition (human properdin [4]): 8 µg/mL; IC50 (read off the curve): C3b deposition (AP activation on LPS, normal human serum) (human properdin [11]): ~0.5 µg/mL
14 | NMT22 (antibody, V domains shown) VH: EVQLVQSGAEVKKPGASVKVSCKASGYIFTNYPIHWVRQAPGQGLEWMGFIDPGGGYDESAQKFRGRVTLTADTSTSTVYMELSSLRSEDTAVYYCARRGGGYYLDYWGQGTTLTVSS VL: DIQMTQSPSSLSASVGDRVTITCRASQDISFFLNWYQQKPGKAPKLLIYYTSRYHSGVPSRFSGSGSGTDFTLTISSLQPEDFATYYCQHGSTLPYTFGQGTKLEIK | 335 pM | 0.3 to 0.4 nM |  |  |  |  |  | IC50 (read off the curve): properdin deposition (AP activation on LPS, 10% normal human serum) (human properdin [10]): ~9 µg/mL
15 | NMT28-100 (antibody, V domains shown) VH: EVQLVQSGAEVKKPGASVKVSCKASGYIFTNYPIHWVRQAPGQGLEWMGFIDPGGGYDEPDERFRDRVTMTADTSTSTAYMELSSLRSEDTAVYYCARRGGGYYLDYWGQGTLVTVSS VL: DIQMTQSPSSLSASVGDRVTITCRASQDISFFLNWYQQKPGKAPKLLIYYTSRYHSGVPSRFSGSGSGTDFTLTISSLQPEDFATYYCQHGQTLPWTFGQGTKVEIK |  |  | ~0.5 µg/mL | 0.3 to 0.4 nM | 318 pM | 1 µg/mL | 3 µg/mL | 
